Experimental data published in paper PMC12630831.

Biological target: T1, PRDX1 (peroxiredoxin 1), endogenous in TM3 cells (mouse (endogenous in TM3)), P35700
T1 chain: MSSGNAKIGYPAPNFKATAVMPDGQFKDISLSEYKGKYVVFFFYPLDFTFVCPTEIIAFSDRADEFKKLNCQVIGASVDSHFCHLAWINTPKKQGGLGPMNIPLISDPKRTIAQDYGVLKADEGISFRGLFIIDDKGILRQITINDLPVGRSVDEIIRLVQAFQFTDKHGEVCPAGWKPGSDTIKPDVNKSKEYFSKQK
Test: SDS-PAGE under DTT-free conditions with western blot
Conditions: remark: other sources report otherwise

B1: PRDX1 (peroxiredoxin 1), endogenous in TM3 cells, P35700 1-199 (enzyme)
chain: MSSGNAKIGYPAPNFKATAVMPDGQFKDISLSEYKGKYVVFFFYPLDFTFVCPTEIIAFSDRADEFKKLNCQVIGASVDSHFCHLAWINTPKKQGGLGPMNIPLISDPKRTIAQDYGVLKADEGISFRGLFIIDDKGILRQITINDLPVGRSVDEIIRLVQAFQFTDKHGEVCPAGWKPGSDTIKPDVNKSKEYFSKQK
**Q.** Which stoichiometry N does the source give for B1 here?
**A.** 2
